Patent EP1992633A1 (HUMAN GENOME SCIENCES, INC., dated 2008)

Assays:
Experiment in all cases: method not described (cites Mazzei et al. 1995)
[1] = target: T1, TNFR2 (UniProt P20333 23-257, limits assumed)
T1 sequence (looked up): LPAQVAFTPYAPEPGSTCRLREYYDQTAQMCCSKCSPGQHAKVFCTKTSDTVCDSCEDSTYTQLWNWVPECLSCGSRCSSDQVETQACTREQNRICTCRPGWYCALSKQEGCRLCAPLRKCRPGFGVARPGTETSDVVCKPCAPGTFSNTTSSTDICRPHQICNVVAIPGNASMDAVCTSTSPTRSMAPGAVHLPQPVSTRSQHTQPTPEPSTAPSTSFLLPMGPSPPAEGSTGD

[2] = target: T2, Fas (UniProt P25445 26-173, limits assumed)
T2 sequence (looked up): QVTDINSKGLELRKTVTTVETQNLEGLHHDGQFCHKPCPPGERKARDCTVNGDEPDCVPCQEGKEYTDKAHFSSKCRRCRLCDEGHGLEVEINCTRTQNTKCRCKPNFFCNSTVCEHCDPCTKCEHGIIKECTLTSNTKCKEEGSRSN

[3] = target: T3, DR4 (UniProt O00220 24-239, limits assumed)
T3 sequence (looked up): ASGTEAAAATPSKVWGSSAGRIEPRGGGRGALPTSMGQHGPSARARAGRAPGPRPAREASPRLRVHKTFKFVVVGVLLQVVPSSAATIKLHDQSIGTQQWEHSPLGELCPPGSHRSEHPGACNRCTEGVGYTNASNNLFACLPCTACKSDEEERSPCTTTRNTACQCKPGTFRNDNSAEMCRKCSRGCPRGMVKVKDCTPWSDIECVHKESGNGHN

[4] = target: T4, TNFR1 (UniProt P19438 30-211, limits assumed)
T4 sequence (looked up): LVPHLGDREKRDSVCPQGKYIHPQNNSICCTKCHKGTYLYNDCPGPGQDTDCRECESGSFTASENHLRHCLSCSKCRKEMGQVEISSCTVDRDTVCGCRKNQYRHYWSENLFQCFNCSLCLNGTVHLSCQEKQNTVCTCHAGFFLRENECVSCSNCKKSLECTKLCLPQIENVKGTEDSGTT

[5] = target: T5, DR3 (UniProt Q93038 25-199, limits assumed)
T5 sequence (looked up): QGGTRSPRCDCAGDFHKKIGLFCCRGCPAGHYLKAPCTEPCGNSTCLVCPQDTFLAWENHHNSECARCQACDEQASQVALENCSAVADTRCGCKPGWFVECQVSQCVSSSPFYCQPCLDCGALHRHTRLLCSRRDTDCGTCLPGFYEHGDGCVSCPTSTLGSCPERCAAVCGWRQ

Measured: binding result

B1: truncated version of VEGI-alpha corresponding to the putative extracellular domain consisting of residues 38-174, expressed in E. coli (ligand)
chain: ALHWEHELGLAFTKNRMNYTNKFLLIPESGDYFIYSQVTFRGMTSECSEIRQAGRPNKPDSITVVITKVTDSYPEPTQLLMGTKSVCEVGSNWFQPIYLGAMFSLQEGDKLMVNVSDISLVDYTKEDKTFFGAFLL
notes: also called VEGI-alpha deletion mutant; the mutant
no binding: all assays above
